Laboratory results: publication PMC5807433, “PP5 (PPP5C) is a phosphatase of Dvl2” (Scientific Reports, 2018)

Molecular target: T1, FLAG-Dvl2 (full-length human Dishevelled 2) (human, UniProt O14641 1-736)
T1 construct: Dishevelled 2 (Dvl2), human, full length; also called FLAG-tagged Dvl2; full-length Dvl2; source: HEK293T, transfected (pCS2+), in lysate; also purified from transfected HEK293T with FLAG M2 beads and eluted with FLAG peptide; not shown: FLAG, N-terminal, kept
T1 sequence (looked up): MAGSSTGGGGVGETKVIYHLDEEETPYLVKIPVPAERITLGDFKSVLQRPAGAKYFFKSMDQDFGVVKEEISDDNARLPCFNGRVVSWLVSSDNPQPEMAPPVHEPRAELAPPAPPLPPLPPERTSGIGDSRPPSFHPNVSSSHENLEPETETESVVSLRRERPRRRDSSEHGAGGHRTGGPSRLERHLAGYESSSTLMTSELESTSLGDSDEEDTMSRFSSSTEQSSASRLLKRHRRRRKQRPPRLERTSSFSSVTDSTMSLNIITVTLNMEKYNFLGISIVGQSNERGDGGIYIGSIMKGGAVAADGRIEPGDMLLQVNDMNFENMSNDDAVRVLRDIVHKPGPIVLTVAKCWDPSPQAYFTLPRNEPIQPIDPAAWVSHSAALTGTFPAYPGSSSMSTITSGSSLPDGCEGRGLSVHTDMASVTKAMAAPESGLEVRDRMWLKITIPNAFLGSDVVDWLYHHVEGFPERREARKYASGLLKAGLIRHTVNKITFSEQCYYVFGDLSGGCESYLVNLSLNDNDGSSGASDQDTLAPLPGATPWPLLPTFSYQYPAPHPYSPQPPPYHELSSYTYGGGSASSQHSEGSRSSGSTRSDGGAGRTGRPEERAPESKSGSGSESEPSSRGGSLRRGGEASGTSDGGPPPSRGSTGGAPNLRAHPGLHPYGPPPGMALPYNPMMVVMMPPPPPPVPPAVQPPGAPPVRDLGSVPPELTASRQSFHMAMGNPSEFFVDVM
Experiment: pull-down; GST pull-down: FLAG-Dvl2 purified from transfected HEK293T incubated with PP5 protein purified from E. coli and Glutathione Sepharose 4B beads; GST as negative control
Conditions: both partners purified

- binding result: binds
B1: GST-PP5 (wild type) (enzyme, human, UniProt P53041 1-499, looked up)
chain: MAMAEGERTECAEPPRDEPPADGALKRAEELKTQANDYFKAKDYENAIKFYSQAIELNPSNAIYYGNRSLAYLRTECYGYALGDATRAIELDKKYIKGYYRRAASNMALGKFRAALRDYETVVKVKPHDKDAKMKYQECNKIVKQKAFERAIAGDEHKRSVVDSLDIESMTIEDEYSGPKLEDGKVTISFMKELMQWYKDQKKLHRKCAYQILVQVKEVLSKLSTLVETTLKETEKITVCGDTHGQFYDLLNIFELNGLPSETNPYIFNGDFVDRGSFSVEVILTLFGFKLLYPDHFHLLRGNHETDNMNQIYGFEGEVKAKYTAQMYELFSEVFEWLPLAQCINGKVLIMHGGLFSEDGVTLDDIRKIERNRQPPDSGPMCDLLWSDPQPQNGRSISKRGVSCQFGPDVTKAFLEENNLDYIIRSHEVKAEGYEVAHGGRCVTVFSAPNYCDQMGNKASYIHLQGSDLRPQFHQFTAVPHPNVKPMAYANTLLQLGMM
notes: Protein phosphatase 5 (PP5, PPP5C), wild type; Probably full length; also called PP5 protein purified from E. coli; bacterially expressed and purified PP5; source: E. coli BL21 (pPGH vector, IPTG), purified with Glutathione Sepharose 4B beads; not shown: GST, N-terminal, kept
